Reference: paper PMC8979947

How the values were obtained:
[1] = biological target: talin R3-IVVI domain
[2] = biological target: talin R3-IVVI domain; remark: listed apart in the source
[3] = biological target: talin R3-IVVI domain; remark: listed apart in the source
[4] = biological target: talin R3-IVVI domain; remark: listed apart in the source

## Hsp40, human recombinant protein (from UniProt P25685 1-340) (natural protein)
[1]
  intersection force of R3-IVVI, chevron plot, with Hsp40; control 9.7 pN: 7.8 pN

## Hsp70, human recombinant protein (from UniProt P0DMV8 1-641) (natural protein)
[2]
  half-point force of R3-IVVI with Hsp70: 7.2 pN
  half-point force of R3-IVVI with Hsp70 and its inhibitor pifithrin-µ (PFT-µ, binds the substrate-binding domain of Hsp70): 9.5 pN
[1]
  intersection force of R3-IVVI, chevron plot, with Hsp70; control 9.7 pN: 7.2 pN

## DnaK (from UniProt P0A6Y8 1-638) (natural protein)
[3]
  unfolding force (confirmed as intersection force of the chevron plot) of R3-IVVI with DnaK + DnaJ + ADP (DnaKJ-ADP): 6.3 pN
  unfolding force (confirmed as intersection force of the chevron plot) of R3-IVVI with DnaK and ATP; ~6 pN with apo-DnaK: 7.6 pN
[4]
  intersection force (equal unfolding and refolding rates) of R3-IVVI, force-clamp chevron plot, with 3 µM apo-DnaK; control 9.7 pN: 6 pN

## DnaJ (from UniProt P08622 1-376) (natural protein)
[4]
  intersection force (equal unfolding and refolding rates) of R3-IVVI, force-clamp chevron plot, with 1 µM DnaJ; control 9.7 pN: 7.9 pN

B1: oxidized DsbA (enzyme)
chain: AQYEDGKQYTTLEKPVAGAPQVLEFFSFFCPHCYQFEEVLHISDNVKKKLPEGVKMTKYHVNFMGGDLGKDLTQAWAVAMALGVEDKVTVPLFEGVQKTQTIRSASDIRDVFINAGIKGEEYDAAWNSFVVKSLVAQQEKAAADVQLRGVPAMFVNGKYQLNPQGMDTSNMDVFVQQYADTVKYLSEKK
modifications: oxidized (0.3% H2O2 overnight)
[4]
  intersection force (equal unfolding and refolding rates) of R3-IVVI, force-clamp chevron plot, with 60 µM DsbA; control 9.7 pN: 14.9 pN
